# Source: the RNAGym collection of RNA variant scans (doi:10.7554/elife.80360)
# B1: Hairpin Ribozyme (parent)
# chain: GUCCUCUUUCACGUGCGCGUGAAAGAGAGAAGUGAACCAGAGAAACACACGUUGUGGUAUAUUACCUGGUA
# Variants of: B1
# Test: self-cleavage, relative activity (ratio to wild type); higher = more cleavage; co-transcriptional
row,Variant,self-cleavage
1,A24C G32A,0.161
2,A24C G32C,0.131
3,A24C G40A,0.335
4,A24C G40C,0.185
5,A24C G51A,0.932
6,A24C G51C,0.77
7,A24C G54C,0.313
8,A24C G54U,0.534
9,A24C G56A,0.1
10,A24C G56C,0.115
11,A24C G56U,0.231
12,A24C G57A,0.24
13,A24C G69A,0.484
14,A24C G69C,0.218
15,A24C U33C,0.16
16,A24C U58C,1.11
17,A24C U60A,0.76
18,A24C U60C,0.972
19,A24C U60G,0.609
20,A24C U63A,0.0496
21,A24C U63G,0.0877
22,A24C U67C,0.208
23,A24C U70C,0.778
24,A24C U70G,0.666

row,Variant,self-cleavage
1,A24G,0.87
2,A24G A26C,0.367
3,A24G A26G,0.569
4,A24G A26U,0.661
5,A24G A30G,0.0908
6,A24G A31C,0.041
7,A24G A31U,0.111
8,A24G A36G,0.679
9,A24G A39C,0.384
10,A24G A41C,0.743
11,A24G A44C,0.0644
12,A24G A44U,0.0876
13,A24G A45C,0.235
14,A24G A45U,0.145
15,A24G A47U,0.0569
16,A24G A49C,0.163
17,A24G A61G,0.254
18,A24G A64C,0.17
19,A24G A71C,1.4
20,A24G C46U,0.0984
21,A24G C50G,0.136
22,A24G C50U,0.371
23,A24G C65A,0.706
24,A24G C65U,0.371

row,Variant,self-cleavage
1,A24G C66G,0.226
2,A24G G27C,0.171
3,A24G G29C,0.174
4,A24G G29U,0.0932
5,A24G G40A,0.338
6,A24G G40C,0.188
7,A24G G42A,0.111
8,A24G G42C,0.275
9,A24G G42U,0.289
10,A24G G51C,0.829
11,A24G G54C,0.458
12,A24G G56A,0.187
13,A24G G68C,0.232
14,A24G G68U,0.273
15,A24G G69A,0.392
16,A24G U33A,0.118
17,A24G U52A,1.12
18,A24G U53A,0.822
19,A24G U55A,0.272
20,A24G U55C,0.196
21,A24G U60C,0.936
22,A24G U63A,0.231
23,A24G U67A,0.204
24,A24G U70A,0.746

row,Variant,self-cleavage
1,A24U,0.868
2,A24U A26C,0.575
3,A24U A26G,0.79
4,A24U A26U,0.443
5,A24U A28C,0.449
6,A24U A30G,0.164
7,A24U A31C,0.163
8,A24U A36G,0.943
9,A24U A39C,0.5
10,A24U A41G,0.71
11,A24U A43U,0.121
12,A24U A45U,0.159
13,A24U A47C,0.3
14,A24U A47G,0.164
15,A24U A49C,0.104
16,A24U A49U,0.216
17,A24U A59G,0.183
18,A24U A61U,0.187
19,A24U A64G,0.492
20,A24U A71U,0.783
21,A24U C37A,0.304
22,A24U C38A,0.154
23,A24U C46A,0.11
24,A24U C48U,0.252

row,Variant,self-cleavage
1,A24U C50G,0.341
2,A24U G25A,0.219
3,A24U G25C,0.385
4,A24U G27A,0.334
5,A24U G32U,0.128
6,A24U G40C,0.116
7,A24U G51C,0.805
8,A24U G56C,0.14
9,A24U G57U,0.188
10,A24U G69C,0.271
11,A24U U33C,0.0916
12,A24U U52A,0.925
13,A24U U52G,0.744
14,A24U U53A,1.03
15,A24U U53C,0.885
16,A24U U62G,0.131
17,G25A,0.634
18,G25A A30G,0.188
19,G25A A30U,0.234
20,G25A A31C,0.128
21,G25A A35C,0.738
22,G25A A36U,0.363
23,G25A A41G,0.494
24,G25A A44U,0.179

row,Variant,self-cleavage
1,G25A A45U,0.111
2,G25A A47C,0.107
3,G25A A49U,0.209
4,G25A A59C,0.196
5,G25A A59U,0.21
6,G25A A61C,0.196
7,G25A A64C,0.23
8,G25A A64U,0.173
9,G25A C37U,0.494
10,G25A C46U,0.116
11,G25A C48G,0.0903
12,G25A C50G,0.14
13,G25A C65A,0.615
14,G25A C65G,0.215
15,G25A C66U,0.239
16,G25A G27A,0.148
17,G25A G32C,0.0951
18,G25A G34A,0.715
19,G25A G34U,1.11
20,G25A G40U,0.153
21,G25A G42A,0.0699
22,G25A G51C,0.479
23,G25A G57A,0.205
24,G25A G68A,0.164

row,Variant,self-cleavage
1,G25A G68U,0.152
2,G25A G69C,0.228
3,G25A U33A,0.235
4,G25A U33C,0.0884
5,G25A U53A,0.472
6,G25A U53C,0.659
7,G25A U55G,0.159
8,G25A U58C,0.581
9,G25A U62A,0.121
10,G25A U62C,0.224
11,G25A U63G,0.173
12,G25A U70C,0.588
13,G25C,0.563
14,G25C A26G,0.254
15,G25C A28C,0.214
16,G25C A31C,0.168
17,G25C A31U,0.143
18,G25C A35G,0.578
19,G25C A36C,0.539
20,G25C A36G,0.497
21,G25C A39C,0.324
22,G25C A39U,0.262
23,G25C A41U,0.931
24,G25C A45C,0.123

row,Variant,self-cleavage
1,G25C A45G,0.0878
2,G25C A45U,0.205
3,G25C A47U,0.0432
4,G25C A49G,0.255
5,G25C A49U,0.21
6,G25C A59C,0.232
7,G25C A59U,0.134
8,G25C A61U,0.213
9,G25C A64U,0.134
10,G25C A71U,0.476
11,G25C C37G,0.225
12,G25C C38G,0.15
13,G25C C46U,0.0896
14,G25C C50A,0.214
15,G25C C65A,0.382
16,G25C C65G,0.174
17,G25C C66G,0.217
18,G25C G27A,0.213
19,G25C G32A,0.0816
20,G25C G32U,0.0809
21,G25C G34A,0.821
22,G25C G34U,1.25
23,G25C G40A,0.0978
24,G25C G51A,0.591

row,Variant,self-cleavage
1,G25C G56A,0.149
2,G25C G68A,0.192
3,G25C G69A,0.149
4,G25C U33C,0.319
5,G25C U33G,0.197
6,G25C U53C,0.417
7,G25C U58A,0.308
8,G25C U58C,0.559
9,G25C U60C,0.673
10,G25C U62C,0.252
11,G25C U62G,0.0816
12,G25C U67A,0.136
13,G25C U67G,0.152
14,G25U,0.65
15,G25U A30G,0.124
16,G25U A30U,0.0827
17,G25U A35C,0.691
18,G25U A39C,0.336
19,G25U A41C,0.953
20,G25U A41G,0.611
21,G25U A43G,0.183
22,G25U A43U,0.217
23,G25U A44C,0.229
24,G25U A44G,0.165

row,Variant,self-cleavage
1,G25U A44U,0.113
2,G25U A49U,0.136
3,G25U A59U,0.237
4,G25U A64C,0.177
5,G25U A71G,0.654
6,G25U C37A,0.261
7,G25U C38G,0.0734
8,G25U C46A,0.205
9,G25U C46U,0.157
10,G25U C48A,0.143
11,G25U C48U,0.163
12,G25U C50A,0.283
13,G25U C65A,0.735
14,G25U C65G,0.211
15,G25U C65U,0.188
16,G25U C66U,0.315
17,G25U G32C,0.187
18,G25U G32U,0.0897
19,G25U G42C,0.22
20,G25U G42U,0.183
21,G25U G51A,0.613
22,G25U G51U,0.671
23,G25U G54C,0.241
24,G25U G57A,0.145

row,Variant,self-cleavage
1,G25U G68C,0.243
2,G25U G68U,0.159
3,G25U G69C,0.0669
4,G25U G69U,0.165
5,G25U U33G,0.168
6,G25U U53C,0.689
7,G25U U53G,0.376
8,G25U U55A,0.216
9,G25U U55G,0.195
10,G25U U58G,0.439
11,G25U U60C,0.885
12,G25U U60G,0.288
13,G25U U62C,0.123
14,G25U U67A,0.145
15,G25U U70A,0.432
16,G25U U70C,0.679
17,G25U U70G,0.613
18,A26C,0.708
19,A26C A28G,0.785
20,A26C A30G,0.0971
21,A26C A30U,0.165
22,A26C A31C,0.0424
23,A26C A31G,0.445
24,A26C A31U,0.097

row,Variant,self-cleavage
1,A26C A41C,0.734
2,A26C A43C,0.159
3,A26C A44U,0.193
4,A26C A45G,0.136
5,A26C A45U,0.182
6,A26C A47C,0.199
7,A26C A59U,0.245
8,A26C A61C,0.0459
9,A26C A64G,0.539
10,A26C A64U,0.158
11,A26C A71G,1.01
12,A26C C37A,0.156
13,A26C C37G,0.373
14,A26C C46G,0.106
15,A26C C48A,0.045
16,A26C C48U,0.173
17,A26C C50U,0.306
18,A26C C65A,0.614
19,A26C C65U,0.256
20,A26C C66U,0.315
21,A26C G29A,0.149
22,A26C G29C,0.136
23,A26C G29U,0.109
24,A26C G32U,0.196

row,Variant,self-cleavage
1,A26C G34C,1.47
2,A26C G51A,0.67
3,A26C G54A,0.511
4,A26C G54U,0.314
5,A26C G56U,0.23
6,A26C G57U,0.32
7,A26C G68C,0.147
8,A26C U53C,0.741
9,A26C U55A,0.194
10,A26C U60A,0.659
11,A26C U63G,0.0806
12,A26C U70G,0.509
13,A26G,0.901
14,A26G A28C,0.358
15,A26G A28U,0.491
16,A26G A36C,0.474
17,A26G A36U,0.326
18,A26G A39U,0.407
19,A26G A41G,1.13
20,A26G A41U,1.24
21,A26G A43U,0.121
22,A26G A45C,0.135
23,A26G A47G,0.161
24,A26G A49C,0.148

row,Variant,self-cleavage
1,A26G A49U,0.288
2,A26G A59U,0.233
3,A26G A61C,0.173
4,A26G A71C,1.55
5,A26G C37A,0.268
6,A26G C38A,0.131
7,A26G C46G,0.19
8,A26G C50G,0.211
9,A26G C65A,0.702
10,A26G C66G,0.353
11,A26G G27C,0.215
12,A26G G51A,0.938
13,A26G G51C,0.78
14,A26G G51U,0.9
15,A26G G54A,0.605
16,A26G G56C,0.14
17,A26G G56U,0.151
18,A26G G57U,0.252
19,A26G G68A,0.309
20,A26G U33A,0.135
21,A26G U52C,0.822
22,A26G U52G,0.721
